PMC10613254

Biological target: bovine brain Arp2/3 complex (bovine) (UniProt P61157)
Assay: ITC; cortactin constructs titrated into ATP-Arp2/3 complex; temperature and concentrations indicated only in Fig. 4d

Chain of Cort_(1-33) (Q60598 1-33): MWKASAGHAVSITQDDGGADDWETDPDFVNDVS
Chain of Cort_(18-76) (Q60598 18-76): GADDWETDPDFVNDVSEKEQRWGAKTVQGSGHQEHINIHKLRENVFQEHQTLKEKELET
Chain of Cort_(1-76), cortactin N-terminal acidic domain (NTA, residues 1-76) (Q60598 1-76): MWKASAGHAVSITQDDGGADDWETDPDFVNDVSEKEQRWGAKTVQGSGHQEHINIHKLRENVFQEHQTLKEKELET

Substance | stoichiometry N
Cort_(18-76) (from UniProt Q60598 18-76) (domain or fragment) | 1
Cort_(1-33) (from UniProt Q60598 1-33) (domain or fragment) | 1
Cort_(1-76), cortactin N-terminal acidic domain (NTA, residues 1-76) (from UniProt Q60598 1-76) (domain or fragment) | 1
